From IntAct's records for PubMed 22664871

B1: Tumor necrosis factor ligand superfamily member 11 (Homo sapiens), O14788 (parent)
chain: MRRASRDYTKYLRGSEEMGGGPGAPHEGPLHAPPPPAPHQPPAASRSMFVALLGLGLGQVVCSVALFFYFRAQMDPNRISEDGTHCIYRILRLHENADFQDTTLESQDTKLIPDSCRRIKQAFQGAVQKELQHIVGSQHIRAEKAMVDGSWLDLAKRSKLEAQPFAHLTINATDIPSGSHKVSLSSWYHDRGWAKISNMTFSNGKLIVNQDGFYYLYANICFRHHETSGDLATEYLQLMVYVTKTSIKIPSSHTLMKGGSTKYWSGNSEFHFYSINVGGFFKLRSGEEISIEVSNPSLLDPDQDATYFGAFKVRDID
partner: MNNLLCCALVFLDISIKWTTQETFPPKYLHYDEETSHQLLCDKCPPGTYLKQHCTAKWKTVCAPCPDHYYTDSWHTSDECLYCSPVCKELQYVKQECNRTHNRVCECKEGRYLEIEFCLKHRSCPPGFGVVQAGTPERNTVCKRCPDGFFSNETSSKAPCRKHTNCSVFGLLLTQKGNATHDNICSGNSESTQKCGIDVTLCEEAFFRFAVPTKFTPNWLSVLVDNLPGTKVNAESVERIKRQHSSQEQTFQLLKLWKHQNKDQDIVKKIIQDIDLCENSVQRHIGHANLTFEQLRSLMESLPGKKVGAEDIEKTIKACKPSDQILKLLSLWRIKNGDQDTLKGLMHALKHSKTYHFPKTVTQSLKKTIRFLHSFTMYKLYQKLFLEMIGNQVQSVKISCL
B2: Tumor necrosis factor receptor superfamily member 11B (Homo sapiens), O00300 (parent)
chain: B1 partner
partner: B1 chain
B3: Tumor necrosis factor ligand superfamily member 11 (Homo sapiens), O14788 (parent)
chain: B1 chain
partner: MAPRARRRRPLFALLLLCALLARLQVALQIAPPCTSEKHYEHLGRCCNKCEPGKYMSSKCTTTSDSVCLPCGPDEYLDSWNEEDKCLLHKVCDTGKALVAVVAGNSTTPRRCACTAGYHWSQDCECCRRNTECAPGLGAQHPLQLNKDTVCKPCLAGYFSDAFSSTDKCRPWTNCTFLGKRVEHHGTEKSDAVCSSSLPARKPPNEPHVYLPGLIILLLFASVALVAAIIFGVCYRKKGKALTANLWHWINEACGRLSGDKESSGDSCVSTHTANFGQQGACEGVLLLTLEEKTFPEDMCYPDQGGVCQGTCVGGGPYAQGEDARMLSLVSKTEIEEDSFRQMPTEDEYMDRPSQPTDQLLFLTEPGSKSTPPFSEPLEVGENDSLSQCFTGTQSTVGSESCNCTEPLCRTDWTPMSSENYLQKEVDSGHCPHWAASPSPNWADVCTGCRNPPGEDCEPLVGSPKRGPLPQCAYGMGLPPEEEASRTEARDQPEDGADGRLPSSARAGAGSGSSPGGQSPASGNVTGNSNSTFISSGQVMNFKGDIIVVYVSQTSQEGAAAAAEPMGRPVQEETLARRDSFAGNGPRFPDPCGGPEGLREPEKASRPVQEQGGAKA

Variants of: B1
Details: with tr11b_human TNFRSF11B

Variant	effect of a mutation on the interaction
K257A	disrupting interaction strength
R223A	disrupting interaction strength
Y241A	decreasing interaction strength

Variants of: B2
Details: with tnf11_human TNFSF11, O14788

Variant	effect of a mutation on the interaction
E116A	decreasing interaction strength
D78A;E79A	with no effect

Variants of: B3
Details: with tnr11_human TNFRSF11A

Variant	effect of a mutation on the interaction
K257A	disrupting interaction strength
Y241A	decreasing interaction strength
R223A	disrupting interaction strength
